Measured values reported in patent US20170145113A1 (Genentech, published 2017).

The binders below were run against T1, His-tagged human HtrA1 protease domain (human, UniProt Q92743 161-367) (assay: SPR (BIACORE T200), huHtrA1-PD-His captured by anti-His, Fab injected).
T1 construct: His-tagged protease domain; also called huHtrA1-PD-His; huHtrA1-PD
Method: These combination mutants included both a variant light chain and a variant heavy chain. BIACORE™ kinetic analysis was performed (as described below in Section C) using the combination mutants.
(§1) To determine the binding affinity of selected Fab variants for HtrA1, SPR measurement with a BIACORE™ T200 instrument was performed. Briefly, a series S sensor chip CM5 was activated with 1-EDC and NHS reagents according to the supplier's instructions, and anti-His antibody was coupled to achieve 200-300 response units (RU), then following by blocking un-reacted groups with 1 M ethanolamine. For kinetics measurements, approximately 5 nM of huHtrA1-PD-His was first injected at 10 μl/min flow rate to capture approximately 100 RU at 2 different flow cells (FC), except for FC1 (which served as a reference). Next, 5-fold serial dilutions of Fab in HBS-P buffer (0.01M HEPES pH 7.4, 0.15M NaCl, 0.005% surfactant P20) from low (0.8 nM) to high (50 nM) were injected (flow rate: 30 μl/min). The binding responses on HtrA1 were corrected by subtracting of RU from a blank flow cell. The sensorgram was recorded and subject to reference and buffer subtraction before evaluating by BIACORE® T200 Evaluation Software (version 2.0). Association rates (kₒₙ) and dissociation rates (koff) were calculated using a simple one-to-one Langmuir binding model. The equilibrium dissociation constant (KD) was calculated as the ratio of koff/kₒₙ.

T1 sequence (Q92743 other isoform, or with tags, fused parts or gaps limits assumed): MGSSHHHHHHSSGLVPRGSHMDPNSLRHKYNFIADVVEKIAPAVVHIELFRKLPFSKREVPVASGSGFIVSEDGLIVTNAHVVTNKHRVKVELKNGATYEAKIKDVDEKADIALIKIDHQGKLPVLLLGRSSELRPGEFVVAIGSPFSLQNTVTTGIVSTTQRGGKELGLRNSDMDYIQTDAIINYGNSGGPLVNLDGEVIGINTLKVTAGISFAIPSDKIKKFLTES

Binder | Kd [pM] | koff [s⁻¹] | kon [M⁻¹ s⁻¹]
combination mutant LC3.HC2 Fab (Fab, V domains shown, Fab) VH: EVQLVQSGAEVKKPGASVKVSCKASGYTFRDSEMHWVRQAPGQGLEWIGGVDPETDGAAYNQKFKGRATITRDTSTSTAYLELSSLRSEDTAVYYCTRGYDYDYALDYWGQGTLVTVSS VL: DIQMTQSPSSLSASVGDRVTITCRASSSVEFIHWYQQKPGKAPKPLISATSNLASGVPSRFSGSGSGTDFTLTISSLQPEDFATYYCQQWSSNPWTFGQGTKVEIK | 302 | 0.000109 | 362000

Target: T1, His-tagged human HtrA1 protease domain
Assay: as above
Remark: another data set of the same source
Method: as §1

Binder | Kd [pM] | koff [s⁻¹] | kon [M⁻¹ s⁻¹]
h15H6.v2 variant LC1 (LC-S29R) Fab (Fab, V domains shown, Fab-Flag tag fusion from 293T cells) VH: EVQLVQSGAEVKKPGASVKVSCKASGYTFTDSEMHWVRQAPGQGLEWIGGVDPETDGAAYNQKFKGRATITRDTSTSTAYLELSSLRSEDTAVYYCTRGYDYDYALDYWGQGTLVTVSS VL: DIQMTQSPSSLSASVGDRVTITCRASSRVNFIHWYQQKPGKAPKPLISATSNLASGVPSRFSGSGSGTDFTLTISSLQPEDFATYYCQQWSSNPWTFGQGTKVEIK | 1550 | 0.000229 | 148000
h15H6.v2 variant HC7 (HC-A58F) Fab (Fab, V domains shown, Fab-Flag tag fusion from 293T cells) VH: EVQLVQSGAEVKKPGASVKVSCKASGYTFTDSEMHWVRQAPGQGLEWIGGVDPETDGAFYNQKFKGRATITRDTSTSTAYLELSSLRSEDTAVYYCTRGYDYDYALDYWGQGTLVTVSS VL: DIQMTQSPSSLSASVGDRVTITCRASSSVNFIHWYQQKPGKAPKPLISATSNLASGVPSRFSGSGSGTDFTLTISSLQPEDFATYYCQQWSSNPWTFGQGTKVEIK | 611 | 0.000165 | 271000
h15H6.v2 variant HC5 (HC-M34L) Fab (Fab, V domains shown, Fab-Flag tag fusion from 293T cells) VH: EVQLVQSGAEVKKPGASVKVSCKASGYTFTDSELHWVRQAPGQGLEWIGGVDPETDGAAYNQKFKGRATITRDTSTSTAYLELSSLRSEDTAVYYCTRGYDYDYALDYWGQGTLVTVSS VL: DIQMTQSPSSLSASVGDRVTITCRASSSVNFIHWYQQKPGKAPKPLISATSNLASGVPSRFSGSGSGTDFTLTISSLQPEDFATYYCQQWSSNPWTFGQGTKVEIK | 481 | 0.000246 | 511000
h15H6.v2 variant LC10 (LC-F32V, LC-S92K) Fab (Fab, V domains shown, Fab-Flag tag fusion from 293T cells) VH: EVQLVQSGAEVKKPGASVKVSCKASGYTFTDSEMHWVRQAPGQGLEWIGGVDPETDGAAYNQKFKGRATITRDTSTSTAYLELSSLRSEDTAVYYCTRGYDYDYALDYWGQGTLVTVSS VL: DIQMTQSPSSLSASVGDRVTITCRASSSVNVIHWYQQKPGKAPKPLISATSNLASGVPSRFSGSGSGTDFTLTISSLQPEDFATYYCQQWKSNPWTFGQGTKVEIK | 8420 | 0.00213 | 253000
h15H6.v2 variant HC9 (HC-A100aP) Fab (Fab, V domains shown, Fab-Flag tag fusion from 293T cells) VH: EVQLVQSGAEVKKPGASVKVSCKASGYTFTDSEMHWVRQAPGQGLEWIGGVDPETDGAAYNQKFKGRATITRDTSTSTAYLELSSLRSEDTAVYYCTRGYDYDYPLDYWGQGTLVTVSS VL: DIQMTQSPSSLSASVGDRVTITCRASSSVNFIHWYQQKPGKAPKPLISATSNLASGVPSRFSGSGSGTDFTLTISSLQPEDFATYYCQQWSSNPWTFGQGTKVEIK | 618 | 0.00021 | 340000
h15H6.v2 variant LC5 (LC-N53E) Fab (Fab, V domains shown, Fab-Flag tag fusion from 293T cells) VH: EVQLVQSGAEVKKPGASVKVSCKASGYTFTDSEMHWVRQAPGQGLEWIGGVDPETDGAAYNQKFKGRATITRDTSTSTAYLELSSLRSEDTAVYYCTRGYDYDYALDYWGQGTLVTVSS VL: DIQMTQSPSSLSASVGDRVTITCRASSSVNFIHWYQQKPGKAPKPLISATSELASGVPSRFSGSGSGTDFTLTISSLQPEDFATYYCQQWSSNPWTFGQGTKVEIK | 481 | 0.000212 | 441000
h15H6.v2 variant LC9 (LC-S93I) Fab (Fab, V domains shown, Fab-Flag tag fusion from 293T cells) VH: EVQLVQSGAEVKKPGASVKVSCKASGYTFTDSEMHWVRQAPGQGLEWIGGVDPETDGAAYNQKFKGRATITRDTSTSTAYLELSSLRSEDTAVYYCTRGYDYDYALDYWGQGTLVTVSS VL: DIQMTQSPSSLSASVGDRVTITCRASSSVNFIHWYQQKPGKAPKPLISATSNLASGVPSRFSGSGSGTDFTLTISSLQPEDFATYYCQQWSINPWTFGQGTKVEIK | 2150 | 0.000404 | 188000
h15H6.v2 variant HC8 (HC-Y100I) Fab (Fab, V domains shown, Fab-Flag tag fusion from 293T cells) VH: EVQLVQSGAEVKKPGASVKVSCKASGYTFTDSEMHWVRQAPGQGLEWIGGVDPETDGAAYNQKFKGRATITRDTSTSTAYLELSSLRSEDTAVYYCTRGYDYDIALDYWGQGTLVTVSS VL: DIQMTQSPSSLSASVGDRVTITCRASSSVNFIHWYQQKPGKAPKPLISATSNLASGVPSRFSGSGSGTDFTLTISSLQPEDFATYYCQQWSSNPWTFGQGTKVEIK | 603 | 0.000237 | 393000
h15H6.v2 variant HC2 (HC-T30R) Fab (Fab, V domains shown, Fab-Flag tag fusion from 293T cells) VH: EVQLVQSGAEVKKPGASVKVSCKASGYTFRDSEMHWVRQAPGQGLEWIGGVDPETDGAAYNQKFKGRATITRDTSTSTAYLELSSLRSEDTAVYYCTRGYDYDYALDYWGQGTLVTVSS VL: DIQMTQSPSSLSASVGDRVTITCRASSSVNFIHWYQQKPGKAPKPLISATSNLASGVPSRFSGSGSGTDFTLTISSLQPEDFATYYCQQWSSNPWTFGQGTKVEIK | 449 | 0.000164 | 366000
h15H6.v2 variant HC3 (HC-T28K) Fab (Fab, V domains shown, Fab-Flag tag fusion from 293T cells) VH: EVQLVQSGAEVKKPGASVKVSCKASGYKFTDSEMHWVRQAPGQGLEWIGGVDPETDGAAYNQKFKGRATITRDTSTSTAYLELSSLRSEDTAVYYCTRGYDYDYALDYWGQGTLVTVSS VL: DIQMTQSPSSLSASVGDRVTITCRASSSVNFIHWYQQKPGKAPKPLISATSNLASGVPSRFSGSGSGTDFTLTISSLQPEDFATYYCQQWSSNPWTFGQGTKVEIK | 374 | 0.000171 | 456000
h15H6.v2 variant HC1 (HC-T30K) Fab (Fab, V domains shown, Fab-Flag tag fusion from 293T cells) VH: EVQLVQSGAEVKKPGASVKVSCKASGYTFKDSEMHWVRQAPGQGLEWIGGVDPETDGAAYNQKFKGRATITRDTSTSTAYLELSSLRSEDTAVYYCTRGYDYDYALDYWGQGTLVTVSS VL: DIQMTQSPSSLSASVGDRVTITCRASSSVNFIHWYQQKPGKAPKPLISATSNLASGVPSRFSGSGSGTDFTLTISSLQPEDFATYYCQQWSSNPWTFGQGTKVEIK | 475 | 0.000165 | 347000
h15H6.v2 variant HC4 (HC-T28R) Fab (Fab, V domains shown, Fab-Flag tag fusion from 293T cells) VH: EVQLVQSGAEVKKPGASVKVSCKASGYRFTDSEMHWVRQAPGQGLEWIGGVDPETDGAAYNQKFKGRATITRDTSTSTAYLELSSLRSEDTAVYYCTRGYDYDYALDYWGQGTLVTVSS VL: DIQMTQSPSSLSASVGDRVTITCRASSSVNFIHWYQQKPGKAPKPLISATSNLASGVPSRFSGSGSGTDFTLTISSLQPEDFATYYCQQWSSNPWTFGQGTKVEIK | 643 | 0.000212 | 331000
h15H6.v2 variant LC6 (LC-Q89H) Fab (Fab, V domains shown, Fab-Flag tag fusion from 293T cells) VH: EVQLVQSGAEVKKPGASVKVSCKASGYTFTDSEMHWVRQAPGQGLEWIGGVDPETDGAAYNQKFKGRATITRDTSTSTAYLELSSLRSEDTAVYYCTRGYDYDYALDYWGQGTLVTVSS VL: DIQMTQSPSSLSASVGDRVTITCRASSSVNFIHWYQQKPGKAPKPLISATSNLASGVPSRFSGSGSGTDFTLTISSLQPEDFATYYCHQWSSNPWTFGQGTKVEIK | 642 | 0.000251 | 390000
h15H6.v2 variant LC8 (LC-S92K) Fab (Fab, V domains shown, Fab-Flag tag fusion from 293T cells) VH: EVQLVQSGAEVKKPGASVKVSCKASGYTFTDSEMHWVRQAPGQGLEWIGGVDPETDGAAYNQKFKGRATITRDTSTSTAYLELSSLRSEDTAVYYCTRGYDYDYALDYWGQGTLVTVSS VL: DIQMTQSPSSLSASVGDRVTITCRASSSVNFIHWYQQKPGKAPKPLISATSNLASGVPSRFSGSGSGTDFTLTISSLQPEDFATYYCQQWKSNPWTFGQGTKVEIK | 1160 | 0.000397 | 343000
h15H6.v2 variant HC6 (HC-E53A) Fab (Fab, V domains shown, Fab-Flag tag fusion from 293T cells) VH: EVQLVQSGAEVKKPGASVKVSCKASGYTFTDSEMHWVRQAPGQGLEWIGGVDPATDGAAYNQKFKGRATITRDTSTSTAYLELSSLRSEDTAVYYCTRGYDYDYALDYWGQGTLVTVSS VL: DIQMTQSPSSLSASVGDRVTITCRASSSVNFIHWYQQKPGKAPKPLISATSNLASGVPSRFSGSGSGTDFTLTISSLQPEDFATYYCQQWSSNPWTFGQGTKVEIK | 2580 | 0.00026 | 101000
h15H6.v2 variant LC2 (LC-N31H) Fab (Fab, V domains shown, Fab-Flag tag fusion from 293T cells) VH: EVQLVQSGAEVKKPGASVKVSCKASGYTFTDSEMHWVRQAPGQGLEWIGGVDPETDGAAYNQKFKGRATITRDTSTSTAYLELSSLRSEDTAVYYCTRGYDYDYALDYWGQGTLVTVSS VL: DIQMTQSPSSLSASVGDRVTITCRASSSVHFIHWYQQKPGKAPKPLISATSNLASGVPSRFSGSGSGTDFTLTISSLQPEDFATYYCQQWSSNPWTFGQGTKVEIK | 836 | 0.00019 | 228000
h15H6.v2 variant LC4 (LC-N53H) Fab (Fab, V domains shown, Fab-Flag tag fusion from 293T cells) VH: EVQLVQSGAEVKKPGASVKVSCKASGYTFTDSEMHWVRQAPGQGLEWIGGVDPETDGAAYNQKFKGRATITRDTSTSTAYLELSSLRSEDTAVYYCTRGYDYDYALDYWGQGTLVTVSS VL: DIQMTQSPSSLSASVGDRVTITCRASSSVNFIHWYQQKPGKAPKPLISATSHLASGVPSRFSGSGSGTDFTLTISSLQPEDFATYYCQQWSSNPWTFGQGTKVEIK | 517 | 0.000213 | 413000
